Test [1] addresses Recombinant C3d (human C3 residues 974-1265, C1010A, with N-terminal G-S-R-S-T) (human) (UniProt P01024). The experiment in a line: ITC at 25 C, Efb-C titrated into recombinant C3d.
Test [2] shares this target. Kind of test: ITC (Example 3, FIG. 17), Efb-C titrated into recombinant C3d.
Test [3] has the same target. The experiment in a line: ITC at 25 C, Efb-C titrated into recombinant C3d, single-site model.
For test [4] the target is unchanged. The experiment in a line: isothermal titration calorimetry, Efb-C titrated into recombinant C3d. For orientation: Isothermal titration calorimetry measures the heat released or taken up as one component is titrated into another.
The target is the same in test [5]. The experiment in a line: ITC at 25 C, Efb titrated into recombinant C3d.
The target is the same in test [6]. Kind of test: ITC (Example 3, FIG. 17), Efb titrated into recombinant C3d.
Test [7] shares this target. Kind of test: ITC at 25 C, Efb titrated into recombinant C3d, single-site model.
The target is the same in test [8]. The experiment in a line: isothermal titration calorimetry, Efb titrated into recombinant C3d.
Test [9] has the same target. The experiment in a line: ITC, model of two non-equivalent sites.
The target is the same in test [10]. The experiment in a line: ITC, Ehp titrated into recombinant C3d, model of two non-equivalent sites, first site.
For test [11] the target is unchanged. Kind of test: isothermal titration calorimetry, Ehp titrated into recombinant C3d; first site.
Test [12] has the same target. Kind of test: ITC, Ehp titrated into recombinant C3d, model of two non-equivalent sites, second site.
For test [13] the target is unchanged. The experiment in a line: isothermal titration calorimetry, Ehp titrated into recombinant C3d; second site.
The target is the same in test [14]. Kind of test: isothermal titration calorimetry, Ehp titrated into recombinant C3d; first site of a model with two non-equivalent sites.
Test [15] shares this target. The experiment in a line: isothermal titration calorimetry, Ehp titrated into recombinant C3d; second site of a model with two non-equivalent sites.

One may read the Kd as the concentration at which binding is half-saturated.

Chain of Recombinant C3d (human C3 residues 974-1265, C1010A, with N-terminal G-S-R-S-T) (human) (P01024 other isoform, or with tags, fused parts or gaps C1010A C1010A limits assumed, form in doubt): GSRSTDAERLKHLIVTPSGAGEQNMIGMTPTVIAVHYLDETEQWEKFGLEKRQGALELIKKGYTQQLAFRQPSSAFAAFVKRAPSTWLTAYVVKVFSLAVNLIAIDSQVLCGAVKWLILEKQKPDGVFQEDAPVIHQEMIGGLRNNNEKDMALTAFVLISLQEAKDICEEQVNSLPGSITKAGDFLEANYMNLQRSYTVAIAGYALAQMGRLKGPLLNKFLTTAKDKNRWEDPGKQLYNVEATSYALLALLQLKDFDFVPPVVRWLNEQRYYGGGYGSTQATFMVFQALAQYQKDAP

For “Efb-C, C-terminal C3-binding domain of Efb from S. aureus strain Mu50 (from UniProt P0C6P2 94-165)”, the enthalpy of binding (ΔH) in test [1] was -8.5 kcal/mol. The Kd in test [2] and in test [3] was 2 nM throughout. The N in test [4] was 1.

Regarding “Extracellular fibrinogen-binding protein (Efb), recombinant full-length, S. aureus strain Mu50 (from UniProt P0C6P2 29-165)”, the enthalpy of binding (ΔH) in [5] was -9 kcal/mol. Besides, the equilibrium dissociation constant (Kd) in test [6] came to 2 nM. In addition, in test [7], the Kd stood at 2 nM. Moreover, in [8], the Kd was determined as 4 nM, the N was 1 and the ΔH is -9.1 kcal/mol.

As to “SAV1155/Ehp (Efb Homologous Protein), recombinant mature form, S. aureus strain Mu50”, the change in ΔG between the first and second sites in [9] is 3 kcal/mol. Moreover, the unfavorable change in enthalpy release between the first and second sites in test [9] was determined as 27 kcal/mol. Also, the Kd in [10] is 0.2 nM; in test [12], 33 nM; in test [14], 0.2 nM; in test [15] it was 33 nM. Also, the N in test [11] and in [13] was 0.5 throughout. For the same substance, the values for the ΔH in test [11] and in [13] were -21.1 kcal/mol and 5.7 kcal/mol, respectively.

(Values after US20110046075A1.)
